Test results published in PMC3501490, “An Investigation of Hierachical Protein Recruitment to the Inhibitory Platelet Receptor, G6B-b” (PLoS ONE, 2012).
Each block holds one substance with its values, some of them ahead of it.

Tests used:
[1] = molecular target: G6B-b dual phosphopeptide (biotinylated 60-mer, amino acids 182 to 241, pY211 and pY237) (human) (UniProt O95866); assay: pull-down; direct pull down assay: peptide on Streptactin beads incubated with equimolar purified SH2 domains (100 pM [sic] each for the tandem SH2 domains), 250 µl PBS, 30 minutes, room temperature; bound and unbound fractions on Coomassie-stained gels
[2] = molecular target: G6B-b pY237 phosphopeptide (biotinylated 60-mer, amino acids 182 to 241, ITSM phosphorylated) (human) (UniProt O95866); assay: as above
[3] = molecular target: G6B-b pY211 phosphopeptide (biotinylated 60-mer, amino acids 182 to 241, ITIM phosphorylated) (human) (UniProt O95866); assay: as above
[4] = molecular target: G6B-b dual phosphopeptide (biotinylated 60-mer, amino acids 182 to 241, pY211 and pY237) (human) (UniProt O95866); assay: SPR; purified SH2 domains of Syk, PLCγ2, Src and PI3K p85 over immobilised G6B-b peptides; how the KD was obtained is not told
[5] = molecular target: SHP-2 tandem (N+C) SH2 domains (UniProt Q06124); assay: SPR kinetics, 37°C; details: reference: unphosphorylated peptide
[6] = molecular target: SHP-2 tandem (N+C) SH2 domains (UniProt Q06124); assay: direct peptide pull-down, Coomassie gel
[7] = molecular target: SHP-1 tandem (N+C) SH2 domains (UniProt P29350); assay: SPR kinetics, 37°C; details: reference: unphosphorylated peptide; sites Y211,Y237
Syk = Syk (UniProt P43405); assay: biotin-peptide pull-down from platelet lysate; details: reference: unphosphorylated peptide; sites Y211,Y237
SHP-2 = SHP-2 (UniProt Q06124); assay: biotin-peptide pull-down from platelet lysate; details: reference: unphosphorylated peptide; sites Y211,Y237
[8] = molecular target: SHP-1 tandem (N+C) SH2 domains (UniProt P29350); assay: direct peptide pull-down, Coomassie gel
[9] = molecular target: SHP-2 C-terminal SH2 domain (UniProt Q06124); assay: direct peptide pull-down, Coomassie gel; details: reference: unphosphorylated peptide; sites Y211,Y237
[10] = molecular target: SHP-2 N-terminal SH2 domain (UniProt Q06124); assay: direct peptide pull-down, Coomassie gel; details: reference: unphosphorylated peptide; sites Y211,Y237
[11] = molecular target: Syk tandem (N+C) SH2 domains (UniProt P43405); assay: direct peptide pull-down, Coomassie gel; details: reference: unphosphorylated peptide; sites Y211,Y237
Syk SH2 domains = Syk SH2 domains (UniProt P43405); assay: SPR; details: reference: unphosphorylated peptide; sites Y211,Y237
[12] = molecular target: SHP-1 tandem (N+C) SH2 domains (UniProt P29350); assay: SPR, 37°C
[13] = molecular target: SHP-2 C-terminal SH2 domain (UniProt Q06124); assay: SPR, 37°C; details: reference: unphosphorylated peptide; sites Y211,Y237
[14] = molecular target: SHP-2 tandem (N+C) SH2 domains (UniProt Q06124); assay: SPR, 37°C
[15] = molecular target: G6B-b dual phosphopeptide (biotinylated 60-mer, amino acids 182 to 241, pY211 and pY237) (human) (UniProt O95866); assay: SPR; BIAcore 3000, biotinylated peptides (50 RU) on streptavidin-coated CM5 chip, single SH2 domains flowed at 10 µl/min, HBS buffer pH 7.4, 0.15 M NaCl, 37°C; KD from equilibrium binding, single site fitting
[16] = molecular target: G6B-b pY237 phosphopeptide (biotinylated 60-mer, amino acids 182 to 241, ITSM phosphorylated) (human) (UniProt O95866); assay: as above
[17] = molecular target: G6B-b pY211 phosphopeptide (biotinylated 60-mer, amino acids 182 to 241, ITIM phosphorylated) (human) (UniProt O95866); assay: as above
[18] = reference: pY211 peptide, sites Y237
[19] = reference: pY237 peptide, sites Y211
[20] = reference: unphosphorylated peptide, sites Y211,Y237

percent bound [1]: 20% | Kd [4]: 25000 nM
Substance: Syk tandem (N+C) SH2 domains (domain or fragment)

percent bound [1]: 40%
Substance: PLCγ2 N+C tandem SH2 domains (domain or fragment)

Kd [15]: 130 nM | Kd [16]: 10000 nM | Kd [17]: 110 nM
Substance: SHP-2 (N)SH2 (His-tag) (domain or fragment)

Further lines, the substance ahead of its results:

Substance: SHP-2 (N+C)SH2 domains (His-tag) (domain or fragment)
percent bound [1]: 70% | percent bound [2]: 25% | percent bound [3]: 50%

Substance: G6B-b 182-241 (from UniProt O95866) pY211 peptide
binding against the reference ([5]; sites Y211): stronger | other: share of SH2 protein bound ([6]; reference: unphosphorylated peptide, sites Y211): stronger

Substance: SHP-1 (N+C)SH2 domains (maltose binding protein-tag) (domain or fragment)
percent bound [1]: 30%

Substance: G6B-b 182-241 (from UniProt O95866) pY237 peptide
binding against the reference ([5]; sites Y237): stronger | other: share of SH2 protein bound ([6]; reference: unphosphorylated peptide, sites Y237): stronger

Substance: G6B-b 182-241 (from UniProt O95866) dual pY211/pY237 peptide
KD [7]: 35.3 nM | KD ([5]; sites Y211,Y237): 0.48 nM | binding against the reference (Syk): stronger | binding against the reference (SHP-2): gained | other: share of SH2 protein bound [8, 18]: gained; reference little or no association | other: share of SH2 protein bound [8, 19]: gained; reference little or no association | other: share of SH2 protein bound [8, 20]: stronger | binding against the reference [9]: stronger | binding against the reference [10]: stronger | other: share of SH2 protein bound [6, 18]: stronger; reference ∼50 | other: share of SH2 protein bound [6, 19]: stronger; reference ∼25 | other: share of SH2 protein bound [6, 20]: stronger | other: share of SH2 protein bound [11]: stronger | KD (Syk SH2 domains): stronger | binding against the reference [12, 18]: stronger | binding against the reference [12, 19]: stronger | binding against the reference [13]: stronger | binding against the reference [14, 18]: stronger | binding against the reference [14, 19]: stronger
